Reference: the supplement of paper PMC10567573

B1: PLAGL1 (parent)
chain: LELGSTEVLLDHLKAHAEEKPPSG

Variants of: B1
Assay: protein stability index of a GFP-peptide fusion (GPS, HEK-293T) (PSI 1-6); higher = more stable
Details: c terminus: a fixed tail appended
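Further: lentivirally expressed fusions sorted by FACS into six bins by GFP to DsRed ratio, PSI derived from sequencing read proportions per bin multiplied by bin number.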

| Variant | protein stability index |
| --- | --- |
| LELGATEVLLDHLKAHAEEKPPSG [S5A] | 3.22 |
| LELGETEVLLDHLKAHAEEKPPSG [S5E] | 3.8 |
| LELGQTEVLLDHLKAHAEEKPPSG [S5Q] | 2.92 |
| LELGKTEVLLDHLKAHAEEKPPSG [S5K] | 3.85 |
| LELGNTEVLLDHLKAHAEEKPPSG [S5N] | 5.08 |
| LELGPTEVLLDHLKAHAEEKPPSG [S5P] | 4.79 |
| LELGDTEVLLDHLKAHAEEKPPSG [S5D] | 4.84 |
| LELGCTEVLLDHLKAHAEEKPPSG [S5C] | 4.51 |
| LELGRTEVLLDHLKAHAEEKPPSG [S5R] | 3.5 |
| LELGGTEVLLDHLKAHAEEKPPSG [S5G] | 4.56 |
| LELGMTEVLLDHLKAHAEEKPPSG [S5M] | 2.3 |
| LELGITEVLLDHLKAHAEEKPPSG [S5I] | 4.15 |
| LELGTTEVLLDHLKAHAEEKPPSG [S5T] | 4.44 |
| LELGWTEVLLDHLKAHAEEKPPSG [S5W] | 2.97 |
| LELGLTEVLLDHLKAHAEEKPPSG [S5L] | 2.53 |
| LELGVTEVLLDHLKAHAEEKPPSG [S5V] | 3.79 |
| LELGFTEVLLDHLKAHAEEKPPSG [S5F] | 3.09 |
| LELGHTEVLLDHLKAHAEEKPPSG [S5H] | 4.84 |
| LEQGSTEVLLDHLKAHAEEKPPSG [L3Q] | 5.55 |
| LEDGSTEVLLDHLKAHAEEKPPSG [L3D] | 5.79 |
| LEWGSTEVLLDHLKAHAEEKPPSG [L3W] | 4.49 |
| LEMGSTEVLLDHLKAHAEEKPPSG [L3M] | 4.09 |
| LEAGSTEVLLDHLKAHAEEKPPSG [L3A] | 5.17 |
| LEPGSTEVLLDHLKAHAEEKPPSG [L3P] | 5.88 |

| Variant | protein stability index |
| --- | --- |
| LESGSTEVLLDHLKAHAEEKPPSG [L3S] | 5.72 |
| LEFGSTEVLLDHLKAHAEEKPPSG [L3F] | 4.33 |
| LEGGSTEVLLDHLKAHAEEKPPSG [L3G] | 5.74 |
| LEYGSTEVLLDHLKAHAEEKPPSG [L3Y] | 5.45 |
| LETGSTEVLLDHLKAHAEEKPPSG [L3T] | 5.18 |
| LEIGSTEVLLDHLKAHAEEKPPSG [L3I] | 4.74 |
| LEKGSTEVLLDHLKAHAEEKPPSG [L3K] | 5.19 |
| LEEGSTEVLLDHLKAHAEEKPPSG [L3E] | 5.8 |
| LENGSTEVLLDHLKAHAEEKPPSG [L3N] | 5.67 |
| LEVGSTEVLLDHLKAHAEEKPPSG [L3V] | 4.9 |
| LEHGSTEVLLDHLKAHAEEKPPSG [L3H] | 5.4 |
| LERGSTEVLLDHLKAHAEEKPPSG [L3R] | 5.54 |
| LECGSTEVLLDHLKAHAEEKPPSG [L3C] | 5.21 |
| FELGSTEVLLDHLKAHAEEKPPSG [L1F] | 4.48 |
| EELGSTEVLLDHLKAHAEEKPPSG [L1E] | 5.02 |
| GELGSTEVLLDHLKAHAEEKPPSG [L1G] | 4.44 |
| WELGSTEVLLDHLKAHAEEKPPSG [L1W] | 4.28 |
| QELGSTEVLLDHLKAHAEEKPPSG [L1Q] | 4.99 |
| RELGSTEVLLDHLKAHAEEKPPSG [L1R] | 5.29 |
| YELGSTEVLLDHLKAHAEEKPPSG [L1Y] | 4.38 |
| NELGSTEVLLDHLKAHAEEKPPSG [L1N] | 5.35 |
| VELGSTEVLLDHLKAHAEEKPPSG [L1V] | 4.91 |
| DELGSTEVLLDHLKAHAEEKPPSG [L1D] | 5.24 |
| MELGSTEVLLDHLKAHAEEKPPSG [L1M] | 4.59 |

| Variant | protein stability index |
| --- | --- |
| SELGSTEVLLDHLKAHAEEKPPSG [L1S] | 4.98 |
| TELGSTEVLLDHLKAHAEEKPPSG [L1T] | 4.91 |
| KELGSTEVLLDHLKAHAEEKPPSG [L1K] | 5.53 |
| IELGSTEVLLDHLKAHAEEKPPSG [L1I] | 3.55 |
| PELGSTEVLLDHLKAHAEEKPPSG [L1P] | 5.23 |
| CELGSTEVLLDHLKAHAEEKPPSG [L1C] | 4.61 |
| HELGSTEVLLDHLKAHAEEKPPSG [L1H] | 5.36 |
| AELGSTEVLLDHLKAHAEEKPPSG [L1A] | 5.43 |
| LELCSTEVLLDHLKAHAEEKPPSG [G4C] | 3.54 |
| LELASTEVLLDHLKAHAEEKPPSG [G4A] | 2.89 |
| LELVSTEVLLDHLKAHAEEKPPSG [G4V] | 3.28 |
| LELRSTEVLLDHLKAHAEEKPPSG [G4R] | 3.94 |
| LELWSTEVLLDHLKAHAEEKPPSG [G4W] | 2.2 |
| LELPSTEVLLDHLKAHAEEKPPSG [G4P] | 4.77 |
| LELKSTEVLLDHLKAHAEEKPPSG [G4K] | 4.3 |
| LELFSTEVLLDHLKAHAEEKPPSG [G4F] | 2.59 |
| LELMSTEVLLDHLKAHAEEKPPSG [G4M] | 2.25 |
| LELLSTEVLLDHLKAHAEEKPPSG [G4L] | 2.77 |
| LELHSTEVLLDHLKAHAEEKPPSG [G4H] | 3.83 |
| LELSSTEVLLDHLKAHAEEKPPSG [G4S] | 4.14 |
| LELTSTEVLLDHLKAHAEEKPPSG [G4T] | 3.95 |
| LELYSTEVLLDHLKAHAEEKPPSG [G4Y] | 2.19 |
| LELESTEVLLDHLKAHAEEKPPSG [G4E] | 3.85 |
| LELNSTEVLLDHLKAHAEEKPPSG [G4N] | 4.54 |

| Variant | protein stability index |
| --- | --- |
| LELQSTEVLLDHLKAHAEEKPPSG [G4Q] | 3.68 |
| LELDSTEVLLDHLKAHAEEKPPSG [G4D] | 5.28 |
| LELISTEVLLDHLKAHAEEKPPSG [G4I] | 2.58 |
| LCLGSTEVLLDHLKAHAEEKPPSG [E2C] | 3.84 |
| LYLGSTEVLLDHLKAHAEEKPPSG [E2Y] | 2.34 |
| LWLGSTEVLLDHLKAHAEEKPPSG [E2W] | 2 |
| LFLGSTEVLLDHLKAHAEEKPPSG [E2F] | 2.15 |
| LLLGSTEVLLDHLKAHAEEKPPSG [E2L] | 2.27 |
| LTLGSTEVLLDHLKAHAEEKPPSG [E2T] | 4.16 |
| LNLGSTEVLLDHLKAHAEEKPPSG [E2N] | 4.69 |
| LHLGSTEVLLDHLKAHAEEKPPSG [E2H] | 4.03 |
| LGLGSTEVLLDHLKAHAEEKPPSG [E2G] | 4.81 |
| LMLGSTEVLLDHLKAHAEEKPPSG [E2M] | 2.81 |
| LPLGSTEVLLDHLKAHAEEKPPSG [E2P] | 4.67 |
| LILGSTEVLLDHLKAHAEEKPPSG [E2I] | 3.18 |
| LKLGSTEVLLDHLKAHAEEKPPSG [E2K] | 4.23 |
| LRLGSTEVLLDHLKAHAEEKPPSG [E2R] | 3.4 |
| LDLGSTEVLLDHLKAHAEEKPPSG [E2D] | 4.03 |
| LSLGSTEVLLDHLKAHAEEKPPSG [E2S] | 3.37 |
| LQLGSTEVLLDHLKAHAEEKPPSG [E2Q] | 4.19 |
| LALGSTEVLLDHLKAHAEEKPPSG [E2A] | 3.53 |
| LVLGSTEVLLDHLKAHAEEKPPSG [E2V] | 2.49 |
